Results: PMC9482650, “Quantitative fragmentomics allow affinity mapping of interactomes” (Nature Communications, 2022)

T1: ARHGEF11, O15085
T1 sequence (O15085 42-136, limits assumed, looked up): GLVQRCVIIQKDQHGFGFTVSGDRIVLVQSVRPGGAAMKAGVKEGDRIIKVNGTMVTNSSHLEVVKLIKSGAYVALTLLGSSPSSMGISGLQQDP

T2: GRIP1_5, Q9Y3R0
T2 sequence (Q9Y3R0 568-668, limits assumed, looked up): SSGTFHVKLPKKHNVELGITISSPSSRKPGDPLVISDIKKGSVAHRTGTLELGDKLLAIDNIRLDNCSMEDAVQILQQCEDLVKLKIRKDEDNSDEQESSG

T3: LIN7B, Q9HAP6
T3 sequence (Q9HAP6 88-185, limits assumed, looked up): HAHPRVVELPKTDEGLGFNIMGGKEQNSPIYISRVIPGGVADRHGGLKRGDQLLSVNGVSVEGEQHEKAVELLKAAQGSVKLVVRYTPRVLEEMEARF

T4: APBA1_1, Q02410
T4 sequence (Q02410 651-752, limits assumed, looked up): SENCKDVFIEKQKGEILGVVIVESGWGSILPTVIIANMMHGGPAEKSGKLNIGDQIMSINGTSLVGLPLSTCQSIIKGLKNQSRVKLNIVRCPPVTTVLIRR

T5: PARD3B_1, Q8TEW8
T5 sequence (Q8TEW8 196-299, limits assumed, looked up): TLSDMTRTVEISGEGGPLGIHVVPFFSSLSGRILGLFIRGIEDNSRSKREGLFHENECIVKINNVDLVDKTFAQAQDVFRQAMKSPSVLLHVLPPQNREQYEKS

T6: TX1BP3, O14907
T6 sequence (O14907 10-122, limits assumed, looked up): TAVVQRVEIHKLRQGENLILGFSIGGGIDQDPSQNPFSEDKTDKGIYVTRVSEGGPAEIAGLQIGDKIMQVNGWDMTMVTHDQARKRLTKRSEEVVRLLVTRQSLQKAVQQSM

T7: DLG3_2, Q92796
T7 sequence (Q92796 221-321, limits assumed, looked up): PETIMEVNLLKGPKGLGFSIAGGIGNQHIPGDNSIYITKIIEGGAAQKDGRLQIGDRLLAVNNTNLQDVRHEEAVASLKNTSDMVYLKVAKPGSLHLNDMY

T8: PDZRN3_1, Q9UPQ7
T8 sequence (Q9UPQ7 244-349, limits assumed, looked up): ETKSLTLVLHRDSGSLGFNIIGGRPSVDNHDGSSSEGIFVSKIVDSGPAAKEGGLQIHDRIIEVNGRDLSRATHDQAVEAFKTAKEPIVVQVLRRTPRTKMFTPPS

T9: RAPGEF6, Q8TEU7
T9 sequence (Q8TEU7 525-625, limits assumed, looked up): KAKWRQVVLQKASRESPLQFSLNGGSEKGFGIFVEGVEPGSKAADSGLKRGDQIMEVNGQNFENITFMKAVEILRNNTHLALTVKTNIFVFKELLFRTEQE

T10: GRIP1_3, Q9Y3R0
T10 sequence (Q9Y3R0 247-346, limits assumed, looked up): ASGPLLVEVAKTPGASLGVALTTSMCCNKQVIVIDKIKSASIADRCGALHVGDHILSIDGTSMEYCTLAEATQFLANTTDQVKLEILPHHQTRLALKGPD

T11: SNTG2, Q9NY99
T11 sequence (Q9NY99 68-166, limits assumed, looked up): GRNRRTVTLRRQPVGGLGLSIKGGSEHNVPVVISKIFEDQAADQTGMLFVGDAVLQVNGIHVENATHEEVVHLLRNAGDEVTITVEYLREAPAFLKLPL

T12: DVL3, Q92997
T12 sequence (Q92997 244-331, limits assumed, looked up): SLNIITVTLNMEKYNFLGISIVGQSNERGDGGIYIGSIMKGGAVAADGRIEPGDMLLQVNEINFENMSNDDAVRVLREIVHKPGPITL

T13: APBA1_2, Q02410
T13 sequence (Q02410 742-832, limits assumed, looked up): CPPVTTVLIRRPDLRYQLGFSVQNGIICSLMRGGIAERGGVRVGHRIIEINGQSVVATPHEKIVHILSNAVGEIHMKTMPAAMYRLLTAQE

T14: PDZD7_3, Q9H5P4
T14 sequence (Q9H5P4 857-944, limits assumed, looked up): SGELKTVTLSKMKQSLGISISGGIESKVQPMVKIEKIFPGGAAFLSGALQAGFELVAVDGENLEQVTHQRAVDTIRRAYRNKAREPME


Key:
Assay in all cases: holdup assay
Set-up in all cases: key: below the threshold = too weak to quantify, mostly under pKd 3.1 to 4
Details in all cases: plain residues with an end cap or a label only (N-terminal biotin on a linker: ttds)
ARHGEF11, O15085 = target: T1, ARHGEF11, O15085
LNX1_3, Q8TBB1 = target: LNX1_3, Q8TBB1
Chain of LNX1_3, Q8TBB1 (Q8TBB1 500-596): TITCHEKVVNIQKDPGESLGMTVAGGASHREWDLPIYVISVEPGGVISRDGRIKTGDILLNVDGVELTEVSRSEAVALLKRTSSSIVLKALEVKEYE

GRIP1_5, Q9Y3R0 = target: T2, GRIP1_5, Q9Y3R0
LNX1_1, Q8TBB1 = target: LNX1_1, Q8TBB1
Chain of LNX1_1, Q8TBB1 (Q8TBB1 261-371): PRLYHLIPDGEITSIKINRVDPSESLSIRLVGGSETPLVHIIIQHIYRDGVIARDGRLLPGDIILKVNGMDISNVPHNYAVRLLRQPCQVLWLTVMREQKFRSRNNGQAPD

LIN7B, Q9HAP6 = target: T3, LIN7B, Q9HAP6
GRIP2_4, Q9C0E4 = target: GRIP2_4, Q9C0E4
Chain of GRIP2_4, Q9C0E4 (Q9C0E4 446-548): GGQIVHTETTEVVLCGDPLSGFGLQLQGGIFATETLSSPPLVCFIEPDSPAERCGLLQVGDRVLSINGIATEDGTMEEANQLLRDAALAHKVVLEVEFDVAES

APBA1_1, Q02410 = target: T4, APBA1_1, Q02410
PARD3B_1, Q8TEW8 = target: T5, PARD3B_1, Q8TEW8
TX1BP3, O14907 = target: T6, TX1BP3, O14907
FRMPD3, Q5JV73 = target: FRMPD3, Q5JV73
Chain of FRMPD3, Q5JV73 (Q5JV73 12-100): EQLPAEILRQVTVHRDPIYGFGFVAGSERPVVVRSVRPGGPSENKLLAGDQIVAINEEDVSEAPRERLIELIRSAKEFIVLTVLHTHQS

Inadl_4, Q8NI35 = target: Inadl_4, Q8NI35
Chain of Inadl_4, Q8NI35 (Q8NI35 547-651): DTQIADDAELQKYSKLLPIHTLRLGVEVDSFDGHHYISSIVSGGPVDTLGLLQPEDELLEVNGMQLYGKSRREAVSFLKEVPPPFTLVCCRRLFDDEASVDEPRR

DLG3_2, Q92796 = target: T7, DLG3_2, Q92796
PDZRN3_1, Q9UPQ7 = target: T8, PDZRN3_1, Q9UPQ7
SCRIB_2, Q14160 = target: SCRIB_2, Q14160
Chain of SCRIB_2, Q14160 (Q14160 857-960): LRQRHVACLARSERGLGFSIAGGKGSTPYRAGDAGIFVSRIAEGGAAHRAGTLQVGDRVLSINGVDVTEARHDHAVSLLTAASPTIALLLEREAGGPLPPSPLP

RAPGEF6, Q8TEU7 = target: T9, RAPGEF6, Q8TEU7
GRIP1_3, Q9Y3R0 = target: T10, GRIP1_3, Q9Y3R0
SNTG2, Q9NY99 = target: T11, SNTG2, Q9NY99
PARD3_3, Q8TEW0 = target: PARD3_3, Q8TEW0
Chain of PARD3_3, Q8TEW0 (Q8TEW0 582-685): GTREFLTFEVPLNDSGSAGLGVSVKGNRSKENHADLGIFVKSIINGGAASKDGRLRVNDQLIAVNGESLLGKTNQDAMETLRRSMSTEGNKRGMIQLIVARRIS

DVL3, Q92997 = target: T12, DVL3, Q92997
GRASP, Q7Z6J2 = target: GRASP, Q7Z6J2
Chain of GRASP, Q7Z6J2 (Q7Z6J2 96-193): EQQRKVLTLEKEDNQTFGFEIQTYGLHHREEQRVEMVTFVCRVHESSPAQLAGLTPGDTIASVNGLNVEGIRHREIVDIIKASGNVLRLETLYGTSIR

GRIP2_5, Q9C0E4 = target: GRIP2_5, Q9C0E4
Chain of GRIP2_5, Q9C0E4 (Q9C0E4 544-642): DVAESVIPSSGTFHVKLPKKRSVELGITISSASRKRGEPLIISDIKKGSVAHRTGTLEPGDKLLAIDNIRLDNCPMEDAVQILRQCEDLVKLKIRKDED

APBA1_2, Q02410 = target: T13, APBA1_2, Q02410
PDZD7_3, Q9H5P4 = target: T14, PDZD7_3, Q9H5P4

| Binder | pKd (ARHGEF11, O15085) | pKd (LNX1_3, Q8TBB1) | pKd (GRIP1_5, Q9Y3R0) | pKd (LNX1_1, Q8TBB1) | pKd (LIN7B, Q9HAP6) | pKd (GRIP2_4, Q9C0E4) | pKd (APBA1_1, Q02410) | pKd (PARD3B_1, Q8TEW8) | pKd (TX1BP3, O14907) | pKd (FRMPD3, Q5JV73) | pKd (Inadl_4, Q8NI35) | pKd (DLG3_2, Q92796) | pKd (PDZRN3_1, Q9UPQ7) | pKd (SCRIB_2, Q14160) | pKd (RAPGEF6, Q8TEU7) | pKd (GRIP1_3, Q9Y3R0) | pKd (SNTG2, Q9NY99) | pKd (PARD3_3, Q8TEW0) | pKd (DVL3, Q92997) | pKd (GRASP, Q7Z6J2) | other results |
| --- | --- | --- | --- | --- | --- | --- | --- | --- | --- | --- | --- | --- | --- | --- | --- | --- | --- | --- | --- | --- | --- |
| SGGKRKETLV [NET1, Q7Z628] | 4.23 | below the threshold | below the threshold | below the threshold | 3.81 | below the threshold | below the threshold | 3.52 | 4.44 | below the threshold | below the threshold | 5.43 | 4.67 | 3.54 | below the threshold | below the threshold | 4.17 | below the threshold | below the threshold | below the threshold | pKd (GRIP2_5, Q9C0E4): below the threshold; pKd (APBA1_2, Q02410): 3.53; pKd (PDZD7_3, Q9H5P4): 4.54 |
| SRSRRRETAL [HPV33-E6, P06427] | 4.25 | below the threshold | below the threshold | below the threshold | 3.72 | below the threshold | below the threshold | 3.43 | 5.07 | below the threshold | below the threshold | 4.61 | 5.93 | 4.61 | below the threshold | below the threshold | 4.48 | below the threshold | below the threshold | 3.49 | pKd (GRIP2_5, Q9C0E4): below the threshold; pKd (APBA1_2, Q02410): below the threshold; pKd (PDZD7_3, Q9H5P4): 4.65 |
| FVETQHQTQV [FAT3, Q8TDW7] | 4.22 | below the threshold | below the threshold | below the threshold | below the threshold | below the threshold | below the threshold | below the threshold | 4 | below the threshold | below the threshold | 4.71 | 3.53 | 4.15 | below the threshold | 3.62 | 3.82 | below the threshold | 3.65 | 3.69 | pKd (GRIP2_5, Q9C0E4): below the threshold; pKd (APBA1_2, Q02410): 3.9; pKd (PDZD7_3, Q9H5P4): 4.11 |
